Reference: patent EP4722228A1 (The University of Tokyo, dated 2024)
Bridge positions count the residues as written; N and C are the ends. Square brackets hold non-standard residues; d marks the D form. Ends that are not written are not given here.

Legend:
[1] = biological target: Fc-tagged mouse MuSK extracellular domain (mouse); test: SPR (Biacore T200), Fc-tagged mouse MuSK on Protein G/A chip, 1:1 fit
[2] = biological target: T1, Recombinant Rat MuSK Fc Chimera Protein (catalog number: 9847-MK-050, R&D Systems) (rat, UniProt Q62838 22-494); test: SPR (Biacore T200), Fc-tagged rat MuSK on Protein G/A chip, 1:1 fit
T1 construct: Bought reagent; also called Fc-tagged rat MuSK; not shown: Fc protein of the bought chimera
T1 sequence (looked up): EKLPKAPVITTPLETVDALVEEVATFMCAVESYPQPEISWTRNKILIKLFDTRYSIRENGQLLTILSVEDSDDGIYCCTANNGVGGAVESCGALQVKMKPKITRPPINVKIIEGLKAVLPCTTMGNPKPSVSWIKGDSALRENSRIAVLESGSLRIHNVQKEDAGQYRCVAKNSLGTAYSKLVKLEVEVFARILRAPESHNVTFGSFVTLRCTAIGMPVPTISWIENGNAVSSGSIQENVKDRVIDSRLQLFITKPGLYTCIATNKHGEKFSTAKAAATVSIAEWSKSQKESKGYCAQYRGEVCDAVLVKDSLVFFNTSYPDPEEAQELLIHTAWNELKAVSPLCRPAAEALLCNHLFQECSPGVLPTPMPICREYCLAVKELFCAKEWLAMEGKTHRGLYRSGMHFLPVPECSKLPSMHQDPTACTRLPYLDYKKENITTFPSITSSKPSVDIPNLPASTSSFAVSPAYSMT

Fc-tagged mouse MuSK extracellular domain (mouse), sequence (chain, as listed by the source limits assumed): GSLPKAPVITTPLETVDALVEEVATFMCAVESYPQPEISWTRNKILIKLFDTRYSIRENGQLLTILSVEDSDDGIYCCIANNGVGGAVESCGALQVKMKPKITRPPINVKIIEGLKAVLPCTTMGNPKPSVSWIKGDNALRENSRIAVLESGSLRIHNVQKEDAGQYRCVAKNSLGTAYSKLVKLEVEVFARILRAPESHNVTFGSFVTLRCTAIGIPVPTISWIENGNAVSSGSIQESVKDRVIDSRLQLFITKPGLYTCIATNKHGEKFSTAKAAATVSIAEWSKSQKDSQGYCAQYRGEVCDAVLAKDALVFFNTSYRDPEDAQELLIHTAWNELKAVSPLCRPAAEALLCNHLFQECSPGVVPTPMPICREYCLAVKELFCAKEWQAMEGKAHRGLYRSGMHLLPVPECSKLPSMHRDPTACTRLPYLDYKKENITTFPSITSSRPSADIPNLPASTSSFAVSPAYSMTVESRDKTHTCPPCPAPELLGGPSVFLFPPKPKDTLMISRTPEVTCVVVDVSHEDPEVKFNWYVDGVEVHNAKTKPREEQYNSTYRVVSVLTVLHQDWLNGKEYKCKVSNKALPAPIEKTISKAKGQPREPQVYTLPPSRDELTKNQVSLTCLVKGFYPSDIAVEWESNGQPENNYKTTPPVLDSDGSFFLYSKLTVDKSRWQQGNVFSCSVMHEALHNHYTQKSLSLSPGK

Kd [1]: 8.8 nM
Kd [2]: 2 nM
B1: Homodimer of MuSK7 with an introduced palmitoyl group (MuSK7-pal) (peptide)
peptide: {CH2CO}-[dY]PSYHTNVVASLKRC
modifications: thioether N-15; also: homodimer: two peptides condensed via C-terminal Cys carboxyl with linking unit bearing palmitic acid
notes: also called Dimeric peptide
